{"source": "paper PMC2481302", "target": "human purified platelet factor 4/CXCL4 (human)", "assay": "cell attachment assay; αvβ3-CHO and mock-transfected CHO cells plated on microtiter wells coated with CXCL4 or CXCL4/CTF at the indicated concentrations; 60 min at 37°C in serum-free medium with 0.5% BSA; attached cells stained with Coomassie blue, absorbance at 620 nm; also with 0.25 mM Mn2+ or 2 mM Mg2+"}
{"substance": "human αvβ3 integrin on CHO cells (αvβ3-CHO, clone A06) (from UniProt P06756 31-1048; P05106 27-788) (receptor)", "values": [{"measurement": "increase of cell attachment with Mn2+ or Mg2+ against no added cation", "value": 25, "unit": "%"}]}
